B1: Cyanovirin-N (natural protein)
chain: LGKFSQTCYNSAIQGSVLTSTCERTNGGYNTSSIDLNSVIENVDGSLKWQPSNFIETCRNTQLAGSSELAAECKTRAQQFVSTKINLDDHIANIDGTLKYE

Assays:
[1] = biological target: HIV-1 subtype A envelope glycoprotein (Env) clone 92RW009 (HIV-1 subtype A)
[2] = biological target: HIV-1 subtype A envelope glycoprotein (Env) clone Q168.a2 (HIV-1 subtype A)
[3] = biological target: HIV-1 subtype A envelope glycoprotein (Env) clone Q23.17 (HIV-1 subtype A)
[4] = biological target: HIV-1 subtype A envelope glycoprotein (Env) clone Q461.e2 (HIV-1 subtype A)
[5] = biological target: HIV-1 subtype B envelope glycoprotein (Env, gp160) clone CAAN5342.A2 (HIV-1 subtype B)
[6] = biological target: HIV-1 subtype B envelope glycoprotein (Env, gp160) clone THRO4156.18 (HIV-1 subtype B)
[7] = biological target: HIV-1 subtype C envelope glycoprotein (Env, gp160) clone CAP177.cvl96 (HIV-1 subtype C)
[8] = biological target: HIV-1 subtype C envelope glycoprotein (Env, gp160) clone CAP206.08J (HIV-1 subtype C)
[9] = biological target: HIV-1 subtype C envelope glycoprotein (Env, gp160) clone CAP210.E8J (HIV-1 subtype C)
[10] = biological target: HIV-1 subtype C envelope glycoprotein (Env, gp160) clone CAP261.cvl93 (HIV-1 subtype C)
[11] = biological target: HIV-1 subtype C envelope glycoprotein (Env, gp160) clone CAP270.cvl44 (HIV-1 subtype C)
[12] = biological target: HIV-1 subtype C envelope glycoprotein (Env, gp160) clone CAP63.A9J (HIV-1 subtype C)
[13] = biological target: HIV-1 subtype C envelope glycoprotein (Env, gp160) clone CAP63.cvl6GA (HIV-1 subtype C)
[14] = biological target: HIV-1 subtype C envelope glycoprotein (Env, gp160) clone COT6.15 (HIV-1 subtype C)
[15] = biological target: HIV-1 subtype C envelope glycoprotein (Env, gp160) clone COT9.6 (HIV-1 subtype C)
[16] = biological target: HIV-1 subtype C envelope glycoprotein (Env, gp160) clone Du151.2 (HIV-1 subtype C)
[17] = biological target: HIV-1 subtype C Env clone COT6.15 V295N (HIV-1 subtype C)
[18] = biological target: HIV-1 subtype C Env clone COT9.6 V295N (HIV-1 subtype C)
[19] = biological target: HIV-1 subtype C Env clone Du151.2 V295N (HIV-1 subtype C)
[20] = biological target: HIV-1 subtype A envelope glycoprotein (Env) clone Q842.d12 (HIV-1 subtype A)
[21] = biological target: HIV-1 subtype B envelope glycoprotein (Env, gp160) clone AC10.0.29 (HIV-1 subtype B)
[22] = biological target: HIV-1 subtype B envelope glycoprotein (Env, gp160) clone PVO.4 (HIV-1 subtype B)
[23] = biological target: HIV-1 subtype B envelope glycoprotein (Env, gp160) clone QH0692.42 (HIV-1 subtype B)
[24] = biological target: HIV-1 subtype B envelope glycoprotein (Env, gp160) clone WITO4160.33 (HIV-1 subtype B)
[25] = biological target: HIV-1 subtype C envelope glycoprotein (Env, gp160) clone CAP228.51J (HIV-1 subtype C)
[26] = biological target: HIV-1 subtype C envelope glycoprotein (Env, gp160) clone CAP256.F7J (HIV-1 subtype C)
[27] = biological target: HIV-1 subtype C envelope glycoprotein (Env, gp160) clone CAP45.G3J (HIV-1 subtype C)
[28] = biological target: HIV-1 subtype C envelope glycoprotein (Env, gp160) clone RP6.6 (HIV-1 subtype C)
[29] = biological target: HIV-1 subtype C envelope glycoprotein (Env, gp160) clone TM7.9 (HIV-1 subtype C)

| Molecule | IC50 of neutralisation of Env-pseudotyped virus (TZM-bl assay) [1] [nM] | IC50 of neutralisation of Env-pseudotyped virus (TZM-bl assay) [2] [nM] | IC50 of neutralisation of Env-pseudotyped virus (TZM-bl assay) [3] [nM] | IC50 of neutralisation of Env-pseudotyped virus (TZM-bl assay) [4] [nM] | IC50 of neutralisation of Env-pseudotyped virus (TZM-bl assay) [5] [nM] | IC50 of neutralisation of Env-pseudotyped virus (TZM-bl assay) [6] [nM] | IC50 of neutralisation of Env-pseudotyped virus (TZM-bl assay) [7] [nM] | IC50 of neutralisation of Env-pseudotyped virus (TZM-bl assay) [8] [nM] | IC50 of neutralisation of Env-pseudotyped virus (TZM-bl assay) [9] [nM] | IC50 of neutralisation of Env-pseudotyped virus (TZM-bl assay) [10] [nM] | IC50 of neutralisation of Env-pseudotyped virus (TZM-bl assay) [11] [nM] | IC50 of neutralisation of Env-pseudotyped virus (TZM-bl assay) [12] [nM] | IC50 of neutralisation of Env-pseudotyped virus (TZM-bl assay) [13] [nM] | IC50 of neutralisation of Env-pseudotyped virus (TZM-bl assay) [14] [nM] | IC50 of neutralisation of Env-pseudotyped virus (TZM-bl assay) [15] [nM] | IC50 of neutralisation of Env-pseudotyped virus (TZM-bl assay) [16] [nM] | IC50 of neutralisation of Env-pseudotyped virus (TZM-bl assay) [17] [nM] | IC50 of neutralisation of Env-pseudotyped virus (TZM-bl assay) [18] [nM] | IC50 of neutralisation of Env-pseudotyped virus (TZM-bl assay) [19] [nM] | IC50 of neutralisation of Env-pseudotyped virus (TZM-bl assay) [20] [nM] | other results |
| --- | --- | --- | --- | --- | --- | --- | --- | --- | --- | --- | --- | --- | --- | --- | --- | --- | --- | --- | --- | --- | --- |
| Griffithsin (from UniProt P84801 1-121) (natural protein) | 1.8 | 3.3 | 1.9 | 0.12 | 11.7 | 1.2 | 55.9 | 30.9 | 0.2 | 4.2 | 0.3 | 23.2 | 25.7 | 0.4 | 1.2 | 1.5 | 0.06 | 0.06 | 0.03 | – | – |
| Scytovirin (from UniProt P86041 1-95) (natural protein) | 21.8 | 9.4 | 29.8 | 18.9 | 188 | 42.6 | 21.8 | 113 | 33.1 | 6.2 | 11.7 | 29.8 | 43.8 | 10.8 | 57.6 | 27.5 | 16.1 | 63 | 32.5 | 40.9 | IC50 of neutralisation of Env-pseudotyped virus (TZM-bl assay) [21]: 24.5 nM; IC50 of neutralisation of Env-pseudotyped virus (TZM-bl assay) [22]: 25.2 nM; IC50 of neutralisation of Env-pseudotyped virus (TZM-bl assay) [23]: 27.3 nM; IC50 of neutralisation of Env-pseudotyped virus (TZM-bl assay) [24]: 24.8 nM; IC50 of neutralisation of Env-pseudotyped virus (TZM-bl assay) [25]: 20.1 nM; IC50 of neutralisation of Env-pseudotyped virus (TZM-bl assay) [26]: 6.7 nM; IC50 of neutralisation of Env-pseudotyped virus (TZM-bl assay) [27]: 16.9 nM; IC50 of neutralisation of Env-pseudotyped virus (TZM-bl assay) [28]: 11.3 nM; IC50 of neutralisation of Env-pseudotyped virus (TZM-bl assay) [29]: 12.1 nM |
| B1 | 1.2 | 1.4 | 3 | 1.2 | 16.7 | – | 7.5 | 18 | 1.2 | 1.8 | – | 1.8 | 3.1 | 0.9 | 3.9 | 2 | 1.1 | 4.4 | 1.2 | 2.5 | IC50 of neutralisation of Env-pseudotyped virus (TZM-bl assay) [21]: 0.3 nM; IC50 of neutralisation of Env-pseudotyped virus (TZM-bl assay) [23]: 2.5 nM; IC50 of neutralisation of Env-pseudotyped virus (TZM-bl assay) [24]: 1.5 nM; IC50 of neutralisation of Env-pseudotyped virus (TZM-bl assay) [25]: 3.1 nM; IC50 of neutralisation of Env-pseudotyped virus (TZM-bl assay) [26]: 1.1 nM; IC50 of neutralisation of Env-pseudotyped virus (TZM-bl assay) [28]: 1.1 nM; IC50 of neutralisation of Env-pseudotyped virus (TZM-bl assay) [29]: 1.1 nM |

Reference: article PMC3401642
